Results as given in patent publication US20250011380A1 (published 2025).
Values joined by “and” are separate entries in the source; they are usually repeats but may differ in a detail not shown here. Equal entries are not always repeated.

Biological target: TGF-β1 (UniProt P01137 279-390)
Experiment: cell-based or functional assay

Sequence of TGF-β1 (P01137 279-390 limits assumed): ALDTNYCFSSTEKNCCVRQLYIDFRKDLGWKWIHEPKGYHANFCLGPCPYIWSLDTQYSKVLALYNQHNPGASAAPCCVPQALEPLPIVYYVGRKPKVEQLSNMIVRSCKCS

B1: human recombinant TGFβRII/Fc (Fc fusion, UniProt P37173 23-159, looked up, not shown: a dimerising Fc or GST)
chain: TIPPHVQKSVNNDMIVTDNNGAVKFPQLCKFCDVRFSTCDNQKSCMSNCSITSICEKPQEVCVAVWRKNDENITLETVCHDPKLPYHDFILEDAASPKCIMKEKKKPGETFFMCSCSSDECNDNIIFSEEYNTSNPD
- IC50, HEK-Blue TGF-β cells, 0.1 nM TGF-β1: 470 pM
- IC50, HEK-Blue TGFβ reporter cells, 0.1 nM TGFβ1: 461 pM and 559 pM
- fold lower TGF-β1 blocking activity than TGFRt15-TGFRs or TGFRt15*-TGFRs: ~10 fold
